Measured values taken from publication doi:10.1101/2021.11.05.467508v1.

substrate: NC(=O)c1ccc[n+]([C@@H]2O[C@H](COP(=O)(O)OP(=O)(O)OC[C@H]3O[C@@H](n4cnc5c(N)ncnc54)[C@H](O)[C@@H]3O)[C@@H](O)[C@H]2O)c1; assay: dot blot saturation kinetics, Michaelis-Menten fit; type: biochemical, Oryza sativa; conditions: H3K9Ac of histone H3 (constant), 0-600 μM NAD+, pH 7.5, 37 °C

Row | Protein | Km [µM] | kcat [s⁻¹]
1 | ΔC1 (Oryza sativa Indica Group) (protein) MSLGYAEKLSYREDVGNVGMPEIFDSPELLHKKIEELAVMVRESKHLVVFTGAGISTSSGIPDFRGPKGVWTLQRSGKGVPGASLPFHRAVPTLTHMALVELEKTGRLKFVISQNVDSLHLRSGLPREKLAELHGNSFKEICPSCKKEYLRDFEIETIGLKDTPRRCSDKNCGARLKDTVLDWEDALPPEEMDAAKEQCQTADLVLCLGTSLQITPACNMPLLSLKNGGRVAIVNLQATPKDKKASLVIHGLVDK | 299 ± 43 | 0.02 ± 0.0014
2 | OsSRT1_cc (CC) (Oryza sativa Indica Group) (protein) KHLVVFTGAGISTSSGIPDFRGPKGVWTLQRSGKGVPGASLPFHRAVPTLTHMALVELEKTGRLKFVISQNVDSLHLRSGLPREKLAELHGNSFKEICPSCKKEYLRDFEIETIGLKDTPRRCSDKNCGARLKDTVLDWEDALPPEEMDAAKEQCQTADLVLCLGTSLQITPACNMPLLSLKNGGRVAIVNLQATPKDKKASLVIHGLVDK | 256 ± 21 | 0.03432 ± 0.00127
3 | ΔN1 (Oryza sativa Indica Group) (protein) KHLVVFTGAGISTSSGIPDFRGPKGVWTLQRSGKGVPGASLPFHRAVPTLTHMALVELEKTGRLKFVISQNVDSLHLRSGLPREKLAELHGNSFKEICPSCKKEYLRDFEIETIGLKDTPRRCSDKNCGARLKDTVLDWEDALPPEEMDAAKEQCQTADLVLCLGTSLQITPACNMPLLSLKNGGRVAIVNLQATPKDKKASLVIHGLVDKVIAGVMYMMNLRIPPYIRTDFVQISLRNSVKKKCVRWTLRVTSIHGLRAPLPFLRSVEVSFPERPDMKPVVLKEQPFSLQRETSMNRPFVMLLTFNFSDGCGCSSSSIEWPVDFLKQKDSFVRDRSLVLQELQHAAEHRSRAGQHAILEREGVPRAETSIHALVTNIVRYDTEDSKAAVPMATWMNSNGSLSKRHMDAIGCNPASSKKQKLVATRHRRKGLNPATQKV | 175 ± 27 | 0.0617 ± 0.00367
